Values of other authors, collected in patent publication US6699832B2 (Pfizer Inc., priority 2000, dated 2004).
Where no end group is shown, it is not given here.

Tests used:
[1] = tested on: neurotensin-1 and neurotensin-2 receptors; details: non-selective antagonist
neurotensin-1 receptor = neurotensin-1 receptor (Homo sapiens, UniProt P30989); details: read-out: binding affinity at the neurotensin-1 receptor
neurotensin-2 receptor = neurotensin-2 receptor (Homo sapiens, UniProt O95665); details: read-out: binding affinity at the neurotensin-2 receptor
Sequence of neurotensin-2 receptor (O95665 whole entry): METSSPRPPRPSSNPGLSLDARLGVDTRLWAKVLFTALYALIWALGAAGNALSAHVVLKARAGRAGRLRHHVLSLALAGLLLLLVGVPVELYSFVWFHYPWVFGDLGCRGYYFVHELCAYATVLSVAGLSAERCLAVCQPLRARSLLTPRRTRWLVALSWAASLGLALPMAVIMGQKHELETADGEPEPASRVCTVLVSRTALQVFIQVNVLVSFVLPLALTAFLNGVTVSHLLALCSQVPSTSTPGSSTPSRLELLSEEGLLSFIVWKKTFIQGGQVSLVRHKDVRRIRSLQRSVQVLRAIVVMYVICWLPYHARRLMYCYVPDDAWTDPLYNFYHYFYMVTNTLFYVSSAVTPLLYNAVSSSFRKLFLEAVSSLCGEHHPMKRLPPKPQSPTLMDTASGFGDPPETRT

Sequence of neurotensin-1 receptor (P30989 whole entry): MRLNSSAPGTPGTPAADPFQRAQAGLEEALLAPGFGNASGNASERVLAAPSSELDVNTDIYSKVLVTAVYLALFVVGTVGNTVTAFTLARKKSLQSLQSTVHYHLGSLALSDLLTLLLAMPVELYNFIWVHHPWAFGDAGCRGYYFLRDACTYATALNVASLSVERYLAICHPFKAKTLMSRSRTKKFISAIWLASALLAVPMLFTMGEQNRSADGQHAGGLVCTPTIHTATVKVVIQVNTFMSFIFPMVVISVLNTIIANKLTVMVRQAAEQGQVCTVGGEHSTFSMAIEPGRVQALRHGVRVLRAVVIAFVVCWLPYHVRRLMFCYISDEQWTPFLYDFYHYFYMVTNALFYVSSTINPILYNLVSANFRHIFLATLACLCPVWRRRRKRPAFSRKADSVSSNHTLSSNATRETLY

| Compound | affinity at neurotensin-1 versus neurotensin-2 receptors (selectivity) [1] | Kd (neurotensin-1 receptor) [nM] | Kd (neurotensin-2 receptor) [nM] |
| --- | --- | --- | --- |
| COc1cccc(OC)c1-c1cc(C(=O)NC2(C(=O)O)C3CC4CC(C3)CC2C4)nn1-c1ccc(C(=O)N(C)CCCN(C)C)cc1C(C)C (stereo not drawn) [SR142948A] | equal affinity |  |  |
| Trp11 NT(1-13): NT(1-13) in which amino acid 11 is tryptophan; selective neurotensin-1 receptor agonist (QLYENKPRRPWIL; ends and bridges not checked; UniProt P30990 151-163, looked up, variant Y11W) |  | ~1 | ~27 |
